Experimental findings from patent US20240279318A1 (NANJING LEGEND BIOTECH, published 2024) are described below.

To fix the notation:
B1: AS170036 VL1VH1-VLH98V (scFv)
scFv: QSALTQPRSVSGSPGQSVTISCAGTSSDVGSENYVSWYQQHPGKAPKLMIYQVNKRASGVPDRFSGSKSGNTASLTISGLQAEDEADYYCASYRSSDVNIVFGGGTKLTVLGGGGSGGGGSGGGGSEVQLVESGGGLVQPGGSLRLSCAASGFTFSSYAMSWVRQAPGKGLEWVSTINSGTGSPYYADSVKGRFTISRDNSKNTLYLQMNSLRAEDTAVYYCAKNFFDGSWFLGPPAMDYWGQGTLVTVSSHHHHHH
B2: AS170036 VL1VH1-VHG108E (scFv)
scFv: B1 scFv with V98H, G234E
B3: AS170036 VL1VH1-VHG56F (scFv)
scFv: B1 scFv with V98H, G182F
B4: AS170036 VL1VH1-VLH98A (scFv)
scFv: B1 scFv with V98A
B5: AS170036 VL1VH1-VLH98P (scFv)
scFv: B1 scFv with V98P
B6: AS170036 VL1VH1-VLH98T (scFv)
scFv: B1 scFv with V98T
B7: AS170036 VL1VH1-VLE32W (scFv)
scFv: B1 scFv with E32W, V98H
B8: AS170036 VL1VH1-VHG108M (scFv)
scFv: B1 scFv with V98H, G234M

Changes are numbered by the printed parent chain.

For one experiment, the target named is ARNTL peptide/HLA-A*02:01 complex (recombinant) (human). Description: SPR. On the technique in general: In SPR one partner is held on a chip, and binding of the other changes the refractive index at the surface.
Consider B1, for which the binding result is “no binding”.
Consider B2, for which the binding result is reported as “no binding”.
Regarding B3, the binding result is given as “no binding”.
Consider B4, for which the binding result was “no binding”.
Consider B5, for which the binding result is on record as “no binding”.
Still for that read-out and setting: the same measure for B6: “no binding”; for B7: “no binding”.
B8: the binding result was “no binding”.

For the next experiment, the target named is ATG9A peptide/HLA-A*02:01 complex (recombinant) (human). Description: SPR.
B1: the binding result was “no binding”.
For B2, the binding result is on record as “no binding”.
Regarding B3, the binding result is “no binding”.
Still for that read-out and setting: in the case of B4 it was “no binding”; in that of B5, “no binding”; in that of B6, “no binding”.
Turning to B7, the binding result was “no binding”.
On to B8, for which the binding result is listed as “no binding”.

The target in a further experiment is BRCA2 peptide/HLA-A*02:01 complex (recombinant) (human). Description: SPR.
B1: the binding result is given as “no binding”.
For B2, the binding result is on record as “no binding”.
Same read-out and setting: the same measure for B3: “no binding”; for B4: “no binding”.
Take B5: the binding result was “no binding”.
As for B6, the binding result is recorded as “no binding”.
As to B7, the binding result is “no binding”.
For the molecule B8, the binding result was “no binding”.

For a further experiment, the target named is CDC14A peptide/HLA-A*02:01 complex (recombinant) (human). Description: SPR.
Consider B1, for which the binding result was “no binding”.
Consider B2, for which the binding result was “no binding”.
Take B3: the binding result is on record as “no binding”.
Same read-out and setting: in the case of B4 it was “no binding”; in that of B5, “no binding”.
Consider B6, for which the binding result is “no binding”.
For B7, the binding result is “no binding”.
For B8, the binding result is recorded as “no binding”.

In another experiment the target is NR2E1 peptide/HLA-A*02:01 complex (recombinant) (human). Description: SPR.
For B1, the binding result is listed as “no binding”.
On to B2, for which the binding result is on record as “no binding”.
With B3, the binding result was “no binding”.
On to B4, for which the binding result is reported as “no binding”.
With B5, the binding result is recorded as “no binding”.
Regarding B6, the binding result is reported as “no binding”.
For the molecule B7, the binding result is listed as “no binding”.
For the molecule B8, the binding result was “no binding”.

The target of the next experiment is OR1I1 peptide/HLA-A*02:01 complex (recombinant) (human). Description: SPR.
With B1, the binding result was “no binding”.
Turning to B2, the binding result is reported as “no binding”.
Regarding B3, the binding result was “no binding”.
As to B4, the binding result is recorded as “no binding”.
Turning to B5, the binding result is given as “no binding”.
On to B6, for which the binding result is listed as “no binding”.
With B7, the binding result is “no binding”.
Still for that read-out and setting: in the case of B8 it was “no binding”.

The target in a further experiment is OR51B6 peptide/HLA-A*02:01 complex (recombinant) (human). The experiment in a line: SPR.
For B1, the binding result is recorded as “no binding”.
For B2, the binding result is given as “no binding”.
The same measure, in the same setting: in the case of B3 it was “no binding”; in that of B4, “no binding”.
On to B5, for which the binding result is given as “no binding”.
Turning to B6, the binding result is given as “no binding”.
For B7, the binding result is “no binding”.
The same measure, in the same setting: in the case of B8 it was “no binding”.

A further experiment addresses OR6C1 peptide/HLA-A*02:01 complex (recombinant) (human). The experiment in a line: SPR.
For B1, the binding result was “no binding”.
For B2, the binding result is recorded as “no binding”.
With B3, the binding result was “no binding”.
Regarding B4, the binding result was “no binding”.
Regarding B5, the binding result is “no binding”.
Take B6: the binding result was “no binding”.
Turning to B7, the binding result was “no binding”.
Turning to B8, the binding result is given as “no binding”.

The target in a further experiment is PTP4A1 peptide/HLA-A*02:01 complex (recombinant) (human). Description: SPR.
Turning to B1, the binding result is given as “no binding”.
On to B2, for which the binding result is listed as “no binding”.
Same read-out and setting: in the case of B3 it was “no binding”; in that of B4, “no binding”; in that of B5, “no binding”.
Same read-out and setting: in the case of B6 it was “no binding”.
B7: the binding result is “no binding”.
For the molecule B8, the binding result is “no binding”.

In another experiment the target is RP1 peptide/HLA-A*02:01 complex (recombinant) (human, UniProt P16213 21-119 (Pongo pygmaeus entry)). The experiment in a line: SPR.
On to B1, for which the binding result is on record as “no binding”.
Consider B2, for which the binding result is recorded as “no binding”.
Regarding B3, the binding result was “no binding”.
Still for that read-out and setting: the same measure for B4: “no binding”.
Take B5: the binding result was “no binding”.
As for B6, the binding result is “no binding”.
On to B7, for which the binding result is recorded as “no binding”.
On to B8, for which the binding result was “no binding”.

The target of a further experiment is RCL1 peptide/HLA-A*02:01 complex (recombinant) (human, UniProt P16213 21-119 (Pongo pygmaeus entry)). The experiment in a line: SPR.
Regarding B1, the binding result is listed as “no binding”.
Regarding B2, the binding result is on record as “no binding”.
As to B3, the binding result is reported as “no binding”.
Turning to B4, the binding result is “no binding”.
B5: the binding result is “no binding”.
With B6, the binding result is listed as “no binding”.
As for B7, the binding result was “no binding”.
As for B8, the binding result was “no binding”.

For the next experiment, the target named is ZNF566 peptide/HLA-A*02:01 complex (recombinant) (human). The experiment in a line: SPR.
Regarding B1, the binding result was “no binding”.
Still for that read-out and setting: in the case of B2 it was “no binding”.
With B3, the binding result is “no binding”.
B4: the binding result was “no binding”.
Regarding B5, the binding result was “no binding”.
With B6, the binding result is “no binding”.
Consider B7, for which the binding result is recorded as “no binding”.
Take B8: the binding result is “no binding”.

In the next experiment the target is T1, AFP158/HLA-A*02:01 complex (human).
T1 construct: biotinylated on the BSP by BirA for ELISA and panning; also called biotinylated AFP158/HLA-A*02:01 complex; Bio-AFP158
Description: SPR; vs AS170036 VL1VH1.
The molecule B1 returned an Affinity increase greater than 2 fold.
B2 gave an Affinity increase greater than 2 fold.
In turn, B3 yielded an Affinity increase greater than 2 fold.
B4: the Affinity increase was greater than 2 fold.
The same measure, in the same setting: in the case of B5 it was greater than 2 fold.
In the case of B6, the Affinity increase is greater than 2 fold.
On the same count and under the same terms, the same measure for B7: greater than 2 fold; for B8: greater than 2 fold.

The target of the next experiment is T1, AFP158/HLA-A*02:01 complex. Description: SPR; vs AS170036 VL1VH1. This is another data set of the same source.
Description: The experiment was carried out as follows. The crude scFv protein were captured onto the sensorchip. Different concentrations (320, 160, 40 nM) of AFP158/HLA-A*02:01 complex flowed over the sensorchip surface, and were allowed to bind the antibody fragment for 100 s followed by injection of the running buffer to allow dissociation of the complex. On-rate (kd) and off-rate (kd) were calculated based on association and dissociation curve, and were used to estimate the equilibrium dissociation constant (KD).
On to B2, for which the Affinity increase came to 4.1 fold.
Molecule B3 gave an Affinity increase of 2.3 fold.
For B8, the Affinity increase was 4.7 fold.

The target in the next experiment is T1, AFP158/HLA-A*02:01 complex. The experiment in a line: SPR, crude scFv captured.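 Also: Peptide–MHC complex flowed at several concentrations over sensorchip-captured scFv, Kd derived from on- and off-rates obtained from the association and dissociation curves.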
As a reminder, the Kd is the constant that tells how readily two partners part at equilibrium. Read a high Kd as lower affinity. Consider B2, for which binding was characterised by a dissociation constant (Kd) of 56 nM.
The molecule B3 came in with a Kd of 98 nM.
The same measure, in the same setting: the same measure for B8: 58 nM.
